These results are taken from patent US20240174744A1 (SCIRHOM, published 2024).

Assay [1] concerns the target T1, dog iRhom2 full length wild type, C-terminally tagged with 3 consecutive copies of the T7 epitope (dog, UniProt Q00M95 1-827).
T1 construct: whole, on cells; also called Dog-iR2-FL-WT-T7
T1 sequence: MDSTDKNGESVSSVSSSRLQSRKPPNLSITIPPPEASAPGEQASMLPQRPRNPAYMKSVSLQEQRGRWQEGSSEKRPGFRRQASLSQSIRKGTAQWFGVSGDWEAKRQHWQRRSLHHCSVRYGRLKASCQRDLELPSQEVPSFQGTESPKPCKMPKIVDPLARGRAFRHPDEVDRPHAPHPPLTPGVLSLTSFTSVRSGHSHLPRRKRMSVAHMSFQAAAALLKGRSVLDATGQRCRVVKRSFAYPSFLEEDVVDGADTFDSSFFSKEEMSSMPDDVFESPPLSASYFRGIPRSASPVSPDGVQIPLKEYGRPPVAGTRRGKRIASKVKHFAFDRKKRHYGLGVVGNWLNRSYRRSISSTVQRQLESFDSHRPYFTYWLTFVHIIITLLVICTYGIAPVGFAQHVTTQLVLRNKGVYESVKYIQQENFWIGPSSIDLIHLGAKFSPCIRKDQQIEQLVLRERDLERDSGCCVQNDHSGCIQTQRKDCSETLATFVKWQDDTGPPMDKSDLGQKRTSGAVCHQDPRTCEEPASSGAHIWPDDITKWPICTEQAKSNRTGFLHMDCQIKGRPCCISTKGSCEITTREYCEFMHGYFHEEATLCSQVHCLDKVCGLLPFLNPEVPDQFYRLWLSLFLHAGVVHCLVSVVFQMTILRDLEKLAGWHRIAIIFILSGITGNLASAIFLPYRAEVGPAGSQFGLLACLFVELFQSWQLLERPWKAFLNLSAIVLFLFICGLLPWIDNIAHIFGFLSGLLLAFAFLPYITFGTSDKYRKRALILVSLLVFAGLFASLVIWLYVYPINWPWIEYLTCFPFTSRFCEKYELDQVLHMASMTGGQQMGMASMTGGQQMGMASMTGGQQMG
Kind of assay: FACS, MEF-DKO-dog-iR2-FL-WT-T7 cells, 3 µg/ml. How it is done: In brief, immortalized MEF-DKO-EV control cells, MEF-DKO-rhesus-iR2-FL-WT-T7 cells, MEF-DKO-cyno-iR2-FL-WT-T7 cells, MEF-DKO-dog-iR2-FL-WT-T7 cells and MEF-DKO-rabbit-iR2-FL-WT-T7 cells, as well as their respective iRhom1 counterparts, were harvested with 10 mM EDTA in PBS, washed and resuspended in FACS buffer (PBS, 3% FBS, 0.05% sodium azide), and seeded in Nunc U-bottom 96-well plates (Thermo Fisher Scientific, USA) at approximately 3×10⁵ cells per well. To pellet cells and remove supernatants, the plates were centrifuged at 1,500 rpm and 4° C. for 3 minutes. For primary staining, cells were resuspended in 100 μl per well of either FACS buffer alone (controls), mouse monoclonal anti-T7 IgG (Merck Millipore, USA) at 3 μg/ml FACS buffer or the antibodies of the present disclosure also at 3 μg/ml FACS buffer and incubated on ice for 1 hour. Afterwards, plates were centrifuged at 1,500 rpm and 4° C. for 3 minutes and washed twice with 200 μl per well of FACS buffer. For secondary staining, cells were spun down and resuspended in 100 μl per well of PE-conjugated goat anti-mouse IgG F(ab′)2 detection fragment (Dianova, Germany) diluted 1:100 in FACS buffer. Protected from light, the cell suspensions were incubated on ice for 1 hour. […] Finally, cells were resuspended in 150 μl per well of FACS buffer and analyzed using a BD Accuri™ C6 Plus flow cytometer (Becton Dickinson, Germany).
On the technique in general: A flow cytometer gives signals particle by particle.

Assay [2] addresses T2, miR2-FL-WT-FLAG (mouse iRhom2 full length wild type C-terminally tagged with the triple-FLAG epitope) (mouse, UniProt Q80WQ6 1-827).
T2 construct: also called expressed by MEF-DKO-miR2-FL-WT-FLAG cells
T2 sequence: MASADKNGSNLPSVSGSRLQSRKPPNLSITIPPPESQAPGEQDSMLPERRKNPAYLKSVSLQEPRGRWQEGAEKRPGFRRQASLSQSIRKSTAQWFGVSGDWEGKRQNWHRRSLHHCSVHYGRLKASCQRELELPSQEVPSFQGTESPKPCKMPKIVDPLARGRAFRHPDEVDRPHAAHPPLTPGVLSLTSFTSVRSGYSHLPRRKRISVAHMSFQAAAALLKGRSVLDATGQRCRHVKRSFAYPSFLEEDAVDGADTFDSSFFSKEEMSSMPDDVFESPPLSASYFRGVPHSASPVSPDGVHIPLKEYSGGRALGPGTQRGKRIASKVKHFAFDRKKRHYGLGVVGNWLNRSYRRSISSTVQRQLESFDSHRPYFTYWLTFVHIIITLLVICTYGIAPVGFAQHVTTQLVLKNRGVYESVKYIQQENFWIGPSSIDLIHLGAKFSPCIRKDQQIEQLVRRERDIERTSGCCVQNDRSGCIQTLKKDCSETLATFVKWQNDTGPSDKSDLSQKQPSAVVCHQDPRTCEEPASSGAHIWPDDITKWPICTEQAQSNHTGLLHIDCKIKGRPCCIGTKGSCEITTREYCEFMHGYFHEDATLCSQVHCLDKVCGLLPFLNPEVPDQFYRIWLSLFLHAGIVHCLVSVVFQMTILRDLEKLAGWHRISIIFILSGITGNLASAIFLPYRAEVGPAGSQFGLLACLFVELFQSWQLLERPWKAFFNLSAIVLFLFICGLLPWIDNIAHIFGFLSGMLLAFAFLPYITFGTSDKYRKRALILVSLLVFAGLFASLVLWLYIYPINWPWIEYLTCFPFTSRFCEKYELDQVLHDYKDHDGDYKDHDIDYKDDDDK
Kind of assay: FACS on MEF-DKO-miR2-FL-WT-FLAG cells.

B1: antibody 5 (antibody, V domains shown)
VH: QVTLKESGPGILQPSQTLSLTCSFSGFSLSTFGMGVGWIRQPSGKGLEWLAHIWWDDEKYYNSALKSRLTISKATSKNQAFLKIANVDTADTATYYCARISNYGSNYWYFNVWGTGTTVTVSS
VL: QVVLTQSPALMSASPGEKVTMTCSAGSSVSCMYWYQQKPGSSPRVLIYDTSNLASGVPARFTGSGSGTSYSLTISRMEAEDAASYYCQQWNSYPLTFGAGTKLELK
notes: Mouse IgG, kappa light chain; also called clone #5; purified antibody 5
Take B1: the binding result in assay [1] is “binds”.

B2: antibody 3 (antibody, V domains shown)
VH: QVTLKESGPGILQPSQTLSLTCSFSGFSLTTFAMGIGWVRQPSGKGLEWLAHIWWDGEKYNNPVLKSRLTISKDTSKNQVFLRIANVDTPDTATYYCARISSIYYIIDNWGQGTSVTVSS
VL: DIVLTQSPATLSVTPGHSVSLSCRASQSISNNLHWYQKKSHESPRLLIKYVSQSISGIPSRFSGSGSGTDFTLSINSVETEDFGMYFCQQSYNWPLTFGAGTKLELK
notes: Mouse IgG, kappa light chain; also called clone #3; purified antibody 3
For the molecule B2, the binding result in assay [2] is on record as “no binding (tested: 3 µg/ml)”; in assay [1], “binds”.
